Each block holds one binder with its values, some of them ahead of it.
What was measured:
human CXCR4 [1] = target: T1, human CXCR4 (human, UniProt P61073 1-352); experiment: flow cytometry
T1 chain: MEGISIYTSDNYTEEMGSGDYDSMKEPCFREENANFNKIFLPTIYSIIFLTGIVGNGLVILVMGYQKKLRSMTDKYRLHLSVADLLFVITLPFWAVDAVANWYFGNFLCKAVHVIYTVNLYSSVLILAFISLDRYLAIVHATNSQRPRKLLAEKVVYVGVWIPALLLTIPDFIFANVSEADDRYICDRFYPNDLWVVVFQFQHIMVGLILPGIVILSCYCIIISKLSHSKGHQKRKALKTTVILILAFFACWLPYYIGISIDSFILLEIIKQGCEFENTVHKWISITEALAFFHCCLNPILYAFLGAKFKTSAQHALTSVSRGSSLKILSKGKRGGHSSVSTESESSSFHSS

human CXCR4 [2] = target: T1, human CXCR4; experiment: flow cytometry; Batch1
human CXCR4 [3] = target: T1, human CXCR4; experiment: flow cytometry; Batch2
human CXCR4 [4] = target: T1, human CXCR4; experiment: flow cytometry
human CXCR4 [5] = target: T1, human CXCR4; experiment: flow cytometry; Batch1
human CXCR4 [6] = target: T1, human CXCR4; experiment: flow cytometry; Batch2
human CXCR4 [7] = target: T1, human CXCR4; experiment: flow cytometry; Batch2
human CXCR4 [8] = target: T1, human CXCR4; experiment: flow cytometry; Batch1

- EC50 (human CXCR4 [1]): ~1.8 nM
B1: V62.1-R108H (antibody, V domains shown)
VH: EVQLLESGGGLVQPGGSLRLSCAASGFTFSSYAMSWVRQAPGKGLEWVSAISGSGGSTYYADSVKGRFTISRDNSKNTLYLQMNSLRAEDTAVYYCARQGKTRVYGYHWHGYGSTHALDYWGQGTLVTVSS
VL: EIVLTQSPGTLSLSPGERATLSCRASQSVSSSYLAWYQQKPGQAPRLLIYGASSRATGIPDRFSGSGSGTDFTLTISRLEPEDFAVYYCQQSDYSYPFTFGQGTKVEIKR

- EC50 (human CXCR4 [7]): ~0.8 nM
- EC50 (human CXCR4 [8]): ~0.7 nM
B5: V62.1-R108H-m47-m38 (antibody, V domains shown)
VH: EVQLLESGGGLVQPGGSLRLSCAASGFTFSSYAMSWVRQAPGKGLEWVSAISGSGGTRYADSVKGRFTISRDNSKNTLYLQMNSLRAEDTAVYYCARQGKTRVYGYHWHGYGSTHALDYWGQGTLVTVSS
VL: EIVLTQSPGTLSLSPGERATLSCRASQSVSSSYLAWYQQKPGQAPRLLIYGASSRATGIPDRFSGSGSGTDFTLTISRLEPEDFAVYYCQQWSSDSVTFGQGTKVEIKR

The remaining lines, values behind:

B2: V62.1-R108H-m80 (antibody, V domains shown)
VH: EVQLLESGGGLVQPGGSLRLSCAASGFTISPYSITWVRQAPGKGLEWVSQINSYNGKTYYADSVKGRFTISRDNSKNTLYLQMNSLRAEDTAVYYCARQGKTRVYGYHWHGYGSTHALDYWGQGTLVTVSS
VL: B1 VL
- EC50 (human CXCR4 [2]): ~1.2 nM
- EC50 (human CXCR4 [3]): ~1.2 nM

B3: V62.1 (antibody, V domains shown)
VH: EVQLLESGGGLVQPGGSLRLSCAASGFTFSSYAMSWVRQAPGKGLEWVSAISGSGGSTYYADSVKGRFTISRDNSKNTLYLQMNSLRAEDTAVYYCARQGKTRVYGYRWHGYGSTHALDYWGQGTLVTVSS
VL: B1 VL
- EC50 (human CXCR4 [4]): ~2.2 nM

B4: V62.1-R108H-m43-m38 (antibody, V domains shown)
VH: EVQLLESGGGLVQPGGSLRLSCAASGFTFSSYAMSWVRQAPGKGLEWVSAISGSGGGSTRYADSVKGRFTISRDNSKNTLYLQMNSLRAEDTAVYYCARQGKTRVYGYHWHGYGSTHALDYWGQGTLVTVSS
VL: B5 VL
- EC50 (human CXCR4 [5]): ~0.6 nM
- EC50 (human CXCR4 [6]): ~1.1 nM

Source: US20190389958A1 (published 2019)
